Values quoted from earlier work, collected in PMC10968392.

Target: SARS-CoV-2 spike protein (cited Kd) (SARS-CoV-2) (UniProt P0DTC2)
Assay: not stated here (previous study)
Settings: PBSMCT: DPBS, 1 mM MgCl2, 1 mM CaCl2, 0.025% Tween-20; 25 °C, 1 h; pH not stated

Sequence	Kd [nM]
GAACATTGGCGTCCGTGAGTGAGACCATAGTCCAGCGAACTAAACCTACCCTAAAGGGCAAGGAAGACGGGCACTTCCTCAAACGCCCAA [SpS1-C1 aptamer]	1.47
GAACATTGGCGTCCGTGAGCAGCTCGTGGTTGTTTGCTTGTATACTTTTGTGGTTTATCTTGTTTCTGATCACTTCCTCAAACGCCCAA [SpS1-C4 aptamer]	1.81
